{
  "source": "patent US20200332009A1",
  "about": "(Innovent, published 2020)",
  "key": {"[1]": {"target": "PD-L1 on CHOK1-PDL1 cells (Promega PD-1/PD-L1 Blockade Bioassay) (UniProt Q9NZQ7 19-290, limits assumed)", "sequence (Q9NZQ7 19-290 limits assumed)": "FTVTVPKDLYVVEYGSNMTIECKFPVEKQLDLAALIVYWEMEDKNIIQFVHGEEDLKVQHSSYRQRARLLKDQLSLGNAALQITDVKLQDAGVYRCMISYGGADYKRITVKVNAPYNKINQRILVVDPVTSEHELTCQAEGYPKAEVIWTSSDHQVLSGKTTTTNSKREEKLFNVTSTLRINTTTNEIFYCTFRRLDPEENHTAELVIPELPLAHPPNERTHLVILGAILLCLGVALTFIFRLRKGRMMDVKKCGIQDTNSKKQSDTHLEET", "experiment": "cell-based or functional assay"}, "[2]": {"target": "T1, human PD-L1 overexpressed on CHO cells (CHO-PDL1) (human, UniProt Q9NZQ7 19-290)", "T1 construct": "whole, on cells; also called CHO cells overexpressing human PD-L1", "T1 sequence (Q9NZQ7 19-290)": "as the sequence (Q9NZQ7 19-290 limits assumed) above", "experiment": "flow cytometry (FACS) on CHO-PDL1 cells"}, "[3]": {"target": "T2, human PD-L1 (purchased from Acrobiosystems) (human, UniProt Q9NZQ7 19-238)", "T2 construct": "also called hPD-L1", "T2 sequence (Q9NZQ7 19-238 limits assumed)": "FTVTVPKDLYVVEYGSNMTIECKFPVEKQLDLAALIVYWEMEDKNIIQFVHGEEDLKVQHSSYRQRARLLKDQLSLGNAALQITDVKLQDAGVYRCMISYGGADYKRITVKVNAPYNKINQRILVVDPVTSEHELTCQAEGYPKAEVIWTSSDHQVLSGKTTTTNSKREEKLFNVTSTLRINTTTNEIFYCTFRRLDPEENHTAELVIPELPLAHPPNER", "experiment": "biological optical interferometry (ForteBio), antibody on sensor, antigen in solution", "procedure": "(§1) SD buffer, antibodies, and antigens (including human PD-L1, mouse PD-L1 and Macaca fascicularis PD-L1, all purchased from Acrobiosystems) each of 100 μL were added to 96-well black polystyrene half area microplates (Greiner, 675076). The sensors were arranged according to the positions of the samples. The instrument settings were as follows: the operation procedures were Baseline, Loading ˜1 nm, Baseline, Association, and Dissociation. The run time of each procedure was dependent on the rates of association and dissociation. The rotation speed was 400 rpm, and the temperature was 30° C. The KD values were analyzed by ForteBio analysis software.\nThe equilibrium dissociation constant (KD) binding of the humanized antibodies of different Fc subtypes of the invention to human PD-L1 was determined by ForteBio. The ForteBio affinity assay was shown in Example 2."}, "[4]": {"target": "T2, human PD-L1 (purchased from …)", "experiment": "biological optical interferometry (ForteBio), antibody on sensor, antigen in solution", "procedure": "The equilibrium dissociation constant (KD) for binding of the antibody of the invention to human PD-L1 was determined by biological optical interferometry (ForteBio). A ForteBio affinity assay of prior art was performed (Estep, P., et al, High throughput solution based measurement of antibody-antigen affinity and epitope binning. MAbs, 2013.5(2):270-8).\nas §1", "remark": "listed apart in the source"}, "[5]": {"target": "T1, human PD-L1 overexpressed on CHO cells …", "experiment": "flow cytometry (FACS) on CHO-PDL1 cells; the table gives no unit, the axis is Con(nM); the text gives this value to 4-79.2", "procedure": "(§2) CHO-PDL1 cells were counted, diluted to 1×10⁶ cells/mL, and added to each well of a U-shaped bottom 96-well plates at 100 μL/well. The suspension was centrifuged at 400 g for 5 min, and the supernatant was discarded. […] The cells were resuspended to a volume of 100 μL/well, and then left on ice for 30 min. The suspension was centrifuged at 400 g for 5 min, and the supernatant was discarded. The cells were washed once with PBS. The mixture was centrifuged at 400 g for 5 min, and the supernatant was discarded. 100 μL of FITC-labeled secondary antibody for anti-mouse-Fab (Jackson Immuno Research) (diluted in PBS in 1:500) was added per well, and 100 μL of FITC-labeled secondary antibody for anti-human-Fab (Jackson Immuno Research) was added to the cells to which the positive control antibody was added. The cells were incubated for 30 min on ice in the dark. The cells were centrifuged at 400 g for 5 min with the supernatant being discarded, and were washed once with a PBS. The cells were resuspended with 100 μL of 1×PBS, and detected by FACS."}, "[6]": {"target": "T1, human PD-L1 overexpressed on CHO cells …", "experiment": "flow cytometry (FACS) on CHO-PDL1 cells; the table gives no unit, the axis is Con(nM); the text gives this value to 4-26.6", "procedure": "as §2"}, "[7]": {"target": "T3, human LAG-3-His (human, UniProt P18627 23-450)", "T3 construct": "also called hLAG-3; human LAG-3 antigen (ArcoBiosystems); not shown: His tag", "T3 sequence (looked up)": "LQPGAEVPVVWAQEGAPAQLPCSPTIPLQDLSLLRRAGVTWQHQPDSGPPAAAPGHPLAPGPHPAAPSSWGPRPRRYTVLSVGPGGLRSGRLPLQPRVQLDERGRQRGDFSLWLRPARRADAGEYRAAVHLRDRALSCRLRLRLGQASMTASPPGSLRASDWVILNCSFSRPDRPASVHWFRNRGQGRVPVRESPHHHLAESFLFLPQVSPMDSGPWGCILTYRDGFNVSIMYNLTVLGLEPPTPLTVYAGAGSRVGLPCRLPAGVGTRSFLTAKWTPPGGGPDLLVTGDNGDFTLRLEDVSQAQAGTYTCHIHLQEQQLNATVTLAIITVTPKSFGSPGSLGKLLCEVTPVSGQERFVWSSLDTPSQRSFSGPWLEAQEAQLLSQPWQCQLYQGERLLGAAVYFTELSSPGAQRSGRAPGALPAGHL", "experiment": "biological optical interferometry (ForteBio), antibody on AHQ tip, human LAG-3-His 100 nM in solution, univalent, 1:1 model", "procedure": "The equilibrium dissociation constant (KD) for binding of ADI31853 to human LAG-3 (hLAG-3) was measured by biological optical interferometry (ForteBio). A ForteBio affinity assay of prior art was performed (Estep, P., et al, High throughput solution based measurement of antibody-antigen affinity and epitope binning. MAbs, 2013.5(2):270-8). Briefly, the sensor was equilibrated offline in assay buffer for 30 minutes, and on-line detection was then conducted for 60 seconds to establish a baseline. The purified antibody obtained as described above was loaded on-line onto an AHQ sensor (ForteBio) for ForteBio affinity assay. The sensor with the loaded antibody was then exposed to 100 nM of a human LAG-3 antigen (ArcoBiosystems) for 5 minutes before transferring the sensor to the assay buffer for dissociation for 5 minutes for dissociation rate measurement. Kinetic analysis was performed using a 1:1 binding model."}},
  "note": "Like-named read-outs stand apart in the source and are kept apart here.",
  "data": [
    {"binder": "HZ4485-IgG1N297A (antibody, V domains shown, Humanized form of 4-48.5, human IgG1 with N297A, kappa) VH: QVQLVQSGAEVAKPGASVKVSCKASGYTFTTYTMHWVRQRPGQGLEWIGNINPNSDYAIYAQKFQGRATMTADKSTNTAYMELSSLRSEDSAVYYCAKQSFDYWGQGTLVTVSS VL: DIVLTQSPASLAVSPGQRATITCRASESVEFYGTSLLQWYQQKPGQPPKLLIYAASNVESGVPARFSGSGSGTDFTLTINPVEADDTANYYCHQGRKVPYTFGQGTKLEIKR", "values": [
      {"measurement": "EC50 of the NFAT luciferase reporter signal (blockade of PD-1 on Jurkat-PD1 cells binding PD-L1 on CHOK1-PDL1 cells)", "setting": "[1]", "value": 0.683, "unit": "nM"},
      {"measurement": "EC50", "setting": "[2]", "value": 1.56, "unit": "nM"},
      {"measurement": "Kd", "setting": "[3]", "value": 3.17, "unit": "nM"}
    ]},
    {"binder": "4-48.5 (antibody, human IgG1, kappa, N297A, V domains shown, Same remark on anti-mouse detection reagents as for 3-266.1; also called chimeric antibody 4-48.5) VH: EVQLQQSGAELARPGASVKMSCKASGYTFTTYTMHWVKQRPGQGLEWIGNINPNSDYAIYNQKFKDKATLTADKSSNTAYMQLSGLTSEDSAVYYCAKQSFDYWGQGTTLTVSS VL: DIVLTQSPASLAVSLGQRATISCRASESVEFYGTSLLQWYQQKPGQPPKLLIYAASNVESGVPARFSGSGSGTDFSLNIHPVEVDDVALYFCHQGRKVPYTFGGGTKLEIKR", "values": [
      {"measurement": "EC50", "setting": "[2]", "value": 2, "unit": "nM"},
      {"measurement": "Kd", "setting": "[4]", "value": 1.23, "unit": "nM"}
    ]},
    {"binder": "4-26.6 (antibody, human IgG1, kappa, N297A, V domains shown, Same remark on anti-mouse detection reagents as for 3-266.1; also called chimeric antibody 4-26.6) VH: QVQLKESGPSLVKPSQTLSLTCSVTGDSITSGYWNWIRKFPGNKLEYMGYISYSGSTYHNPSLKSRISITRDTSKNQFYLQLNSVTKEDTATYYCARGDLWPPWFAYWGQGTLVTVSA VL: not shown", "values": [
      {"measurement": "EC50", "setting": "[2]", "value": 1.99, "unit": "nM"},
      {"measurement": "Kd", "setting": "[4]", "value": 3.85, "unit": "nM"},
      {"measurement": "EC50", "setting": "[5]", "value": 2.6, "unit": "nM"}
    ]},
    {"binder": "3-266.1 (antibody, human IgG1, kappa, N297A, V domains shown, also called chimeric antibody 3-266.1) VH: EVQLQQSVAELVKPGASVKLSCTASGFNIEDTYIHWVKQRPEQGLEWIGRIDPANDDTKYDPKFQGKATITADTSSNTAYLQLSSLTPEDTAVYYCGRGLGRWFAYWGQGTLVTVSA VL: SIVMTQSHKFMSTSIGDRVNISCKASQDVINAVAWCQQKPGQSPKLLIYSASNRYTGVPDRFTGSGSGTDFTFTISSVQAEDLAVYYCQQHYSPPLTFGGGTKLELKR", "values": [
      {"measurement": "EC50", "setting": "[2]", "value": 2.14, "unit": "nM"},
      {"measurement": "Kd", "setting": "[4]", "value": 0.98, "unit": "nM"}
    ]},
    {"binder": "HZ3266-IgG1N297A (antibody, Humanized form of 3-266.1, human IgG1 with N297A, kappa) heavy: not shown light: GIVMTQSPDSLAVSLGERATINCKASQDVINAVAWYQQKPGQSPKLLIYSASNRYTGVPDRFSGSGSGTDFTLTISSLQAEDLAVYYCQQHYSPPLTFGGGTKVEIKRTVAAPSVFIFPPSDEQLKSGTASVVCLLNNFYPREAKVQWKVDNALQSGNSQESVTEQDSKDSTYSLSSTLTLSKADYEKHKVYACEVTHQGLSSPVTKSFNRGEC", "values": [
      {"measurement": "EC50 of the NFAT luciferase reporter signal (blockade of PD-1 on Jurkat-PD1 cells binding PD-L1 on CHOK1-PDL1 cells)", "setting": "[1]", "value": 0.967, "unit": "nM"},
      {"measurement": "EC50", "setting": "[2]", "value": 1.78, "unit": "nM"},
      {"measurement": "Kd", "setting": "[3]", "value": 0.724, "unit": "nM"}
    ]},
    {"binder": "HZ3266-IgG4PAAK (antibody, Humanized form of 3-266.1, mutated human IgG4 constant region, kappa; also called HZ3266-G4PAAK; HZ3266-IgG4PAK) heavy: not shown light: GIVMTQSPDSLAVSLGERATINCKASQDVINAVAWYQQKPGQSPKLLIYSASNRYTGVPDRFSGSGSGTDFTLTISSLQAEDLAVYYCQQHYSPPLTFGGGTKVEIKRTVAAPSVFIFPPSDEQLKSGTASVVCLLNNFYPREAKVQWKVDNALQSGNSQESVTEQDSKDSTYSLSSTLTLSKADYEKHKVYACEVTHQGLSSPVTKSFNRGEC", "values": [
      {"measurement": "EC50", "setting": "[2]", "value": 1.86, "unit": "nM"},
      {"measurement": "Kd", "setting": "[3]", "value": 1.32, "unit": "nM"}
    ]},
    {"binder": "HZ3266-IgG1 (antibody, Humanized form of 3-266.1, human IgG1, kappa) heavy: not shown light: GIVMTQSPDSLAVSLGERATINCKASQDVINAVAWYQQKPGQSPKLLIYSASNRYTGVPDRFSGSGSGTDFTLTISSLQAEDLAVYYCQQHYSPPLTFGGGTKVEIKRTVAAPSVFIFPPSDEQLKSGTASVVCLLNNFYPREAKVQWKVDNALQSGNSQESVTEQDSKDSTYSLSSTLTLSKADYEKHKVYACEVTHQGLSSPVTKSFNRGEC", "values": [
      {"measurement": "EC50 of the NFAT luciferase reporter signal (blockade of PD-1 on Jurkat-PD1 cells binding PD-L1 on CHOK1-PDL1 cells)", "setting": "[1]", "value": 0.623, "unit": "nM"},
      {"measurement": "EC50", "setting": "[2]", "value": 1.81, "unit": "nM"},
      {"measurement": "Kd", "setting": "[3]", "value": 0.935, "unit": "nM"}
    ]},
    {"binder": "4-79.2 (antibody, human IgG1, kappa, N297A, V domains shown, Same remark on anti-mouse detection reagents as for 3-266.1; also called chimeric antibody 4-79.2) VH: EVQLQQSGPSLVKPSQTLSLTCSVTGDSITSGYWNWIREFPGNKLEYLGYISYTGSTYYNPSLKSRISITRDTSKNQYSLQLNSVTTEDTATYYCAKAPRWLSAMDYWGQGTSVTVSS VL: not shown", "values": [
      {"measurement": "EC50", "setting": "[2]", "value": 2.6, "unit": "nM"},
      {"measurement": "Kd", "setting": "[4]", "value": 7.56, "unit": "nM"},
      {"measurement": "EC50", "setting": "[6]", "value": 1.99, "unit": "nM"}
    ]},
    {"binder": "ADI-31853 (antibody, human IgG4 S228P, kappa, F234A L235A, V domains shown, also called anti-human-LAG-3 antibody) VH: QLQLQESGPGLVKPSETLSLTCTVSGGSIYSESYYWGWIRQPPGKGLEWIGSIVYSGYTYYNPSLKSRVTISVDTSKNQFSLKLSSVTAADTAVYYCARVRTWDAAFDIWGQGTMVTVSS VL: DIQMTQSPSSLSASVGDRVTITCQASQDISNYLNWYQQKPGKAPKLLIYDASNLETGVPSRFSGSGSGTDFTFTISSLQPEDIATYYCQQVLELPPWTFGGGTKVEIKR", "values": [
      {"measurement": "Kd", "setting": "[7]", "value": 0.622, "unit": "nM"},
      {"measurement": "koff", "setting": "[7]", "value": 0.0002, "unit": "s⁻¹"},
      {"measurement": "kon", "setting": "[7]", "value": 322000, "unit": "M⁻¹ s⁻¹"}
    ]}
  ]
}
